Test results taken from US20210403579A1 (DELINIA, published 2021).

Molecular target: T1, Human ST2 (human, UniProt Q01638 19-328, limits assumed)
T1 construct: also called human ST2 protein; Interleukin 1 receptor-like 1
T1 sequence (looked up): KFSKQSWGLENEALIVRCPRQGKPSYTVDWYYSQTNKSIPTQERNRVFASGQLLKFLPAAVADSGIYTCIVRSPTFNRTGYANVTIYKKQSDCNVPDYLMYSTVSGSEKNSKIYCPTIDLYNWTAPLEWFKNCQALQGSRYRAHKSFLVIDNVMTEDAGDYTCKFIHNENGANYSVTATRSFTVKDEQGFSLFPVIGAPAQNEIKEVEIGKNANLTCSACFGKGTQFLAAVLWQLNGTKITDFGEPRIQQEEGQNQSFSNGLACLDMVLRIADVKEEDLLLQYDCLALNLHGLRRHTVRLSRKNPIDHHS
Assay: SPR (Carterra), antibody immobilized, ST2 analyte
Description: Binding of the reformatted human ST2 antibodies to the human and mouse ST2 proteins was evaluated by surface plasmon resonance (SPR), using a high throughput antibody screening and characterization platform from Carterra (Salt Lake City, Utah).

| Binder | Kd [nM] | koff [s⁻¹] | kon [M⁻¹ s⁻¹] |
| --- | --- | --- | --- |
| Human ST2 IgG1 Antibody 61 (antibody, V domains shown, IgG1; also called ST2 Antibody 61) VH: QVQLVQSGAEVKKPGSSVKVSCKASGGTFSNYAISWVRQAPGQGLEWMGGIIPVFGTATYAQKFQGRVTITADESTSTAYMELSSLRSEDTAVYYCARVTAMGVGWYFDLWGRGTLVTVSS VL: DIVMTQSPLSLPVTPGEPASISCRSSQSLLHSNGYNYLDWYLQKPGQSPQLLIYAASSLQSGVPDRFSGSGSGTDFTLKISRVEAEDVGVYYCMQSLQTPPTFGQGTKLEIKR | 563 | 0.14 | 260000 |
| Human ST2 IgG1 Antibody 62 (antibody, V domains shown, IgG1; also called ST2 Antibody 62) VH: QVQLVQSGAEVKKPGSSVKVSCKASGYIFTNYWIQWVRQAPGQGLEWMGGIIPIFETANYAQKFQGRVTITADDSTSTAYMELSSLRSEDTAVYYCARLGDRGDFDYWGQGTLVTVSS VL: DIVMTQSPDSLAVSLGERATINCKSSQSISHSPNTRDYLAWYQQKPGQPPKLLIYWASTRESGVPDRFSGSGSGTDFTLTISSLQAEDVAVYYCQQYYRFPLAFGQSTKVEIKR | 71 | 0.068 | 960000 |
| Human ST2 IgG1 Antibody 63 (antibody, V domains shown, IgG1; also called ST2 Antibody 63) VH: QVQLVQSGAEVKKPGSSVKVSCKASGGTFSSDAINWVRQAPGQGLEWMGGIVPAFGTANYAQKFQGRVTITADESTSTAYMELSSLRSEDTAVYYCARSSSSWPYYYYYMDVWGKGTTVTVSS VL: DIVMTQSPLSLPVTPGEPASISCRSSQSLLLNNGNNFIDWYLQKPGQSPQLLIYAASILQGGVPDRFSGSGSGTDFTLKISRVEAEDVGVYYCMQALQTPPTFGQGTKVEIKR | 96 | 0.043 | 450000 |
| Human ST2 IgG1 Antibody 64 (antibody, V domains shown, IgG1; also called ST2 Antibody 64) VH: QVQLVQSGAEVKKPGSSVKVSCKASGYFFTSYGISWVRQAPGQGLEWMGGVIPISGTANYAQSFQGRVTITADESTSTAYMELSSLRSEDTAVYYCARDENGAFDIWGQGTTVTVSS VL: not shown | 366 | 0.12 | 330000 |
| Human ST2 IgG1 Antibody 66 (antibody, V domains shown, IgG1; also called ST2 Antibody 66) VH: QVQLVQSGAEVKKPGSSVKVSCKASGGTFSSNAISWVRQAPGQGLEWMGGIIPIFGTANYAQKFQGRVTITADESTSTAYMELSSLRSEDTAVYYCAGSPTGTPRVVFDYWGQGTLVTVSS VL: DIVMTQSPLSLPVTPGEPASISCRSSQSLLHSNGYNYLDWYLQKPGQSPQLLIYAASSLQSGVPDRFSGSGSGTDFTLKISRVEAEDVGVYYCMQALQTPITFGQGTRLEIKR | 176 | 0.0028 | 16000 |
| Human ST2 IgG1 Antibody 67 (antibody, V domains shown, IgG1; also called ST2 Antibody 67) VH: QVQLVQSGAEVKKPGASVKVSCKASGGTFSSYAISWVRQAPGQGLEWMGRINPNSGGTVYAQKFQGRVTMTRDTSTSTVYMELSSLRSEDTAVYYCARDTSIAARLNPDYYYYYGMDVWGQGTTVTVSS VL: DIQMTQSPSSLSASVGDRVTITCRASQSISSWLAWYQQKPGKAPKLLIYAASNLQSGVPSRFSGSGSGTDFTLTISSLQPEDFATYYCQQSYSTPVTFGQSTRLEIKR | 738 | 0.1 | 140000 |
| Human ST2 IgG1 Antibody 68 (antibody, V domains shown, IgG1; also called ST2 Antibody 68) VH: QVQLVQSGAEVKKPGSSVKVSCKASGGTFSSYAISWVRQAPGQGLEWMGGIIPVVGSPDYAQRFQGRVTITADESTSTAYMELSSLRSEDTAVYYCARHSIVGATATSMDVWGKGTTVTVSS VL: not shown | 704 | 0.13 | 190000 |
| Human ST2 IgG1 Antibody 69 (antibody, V domains shown, IgG1; also called ST2 Antibody 69) VH: QVQLVQSGAEVKKPGASVKVSCKASGYTFSDYYVHWVRQAPGQGLEWMGWISAYNGNTNYAQKLQGRVTMTRDTSTSTVYMELSSLRSEDTAVYYCARGSLDIWFREPGVYMDVWGKGTTVTVSS VL: DIVMTQSPLSLPVTPGEPASISCRSSQSLLHSNGYNYLDWYLQKPGQSPQLLIYAASSLQSGVPDRFSGSGSGTDFTLKISRVEAEDVGVYYCMQALQTPITFGQGTKVEIKR | 71 | 0.029 | 410000 |
| Human ST2 IgG1 Antibody 70 (antibody, V domains shown, IgG1; also called ST2 Antibody 70) VH: QVQLVQSGAEVKKPGSSVKVSCKASGYAFTDYFIHWVRQAPGQGLEWMGGIIPIFGTANYAQKFQGRVTITADKSTSTAYMELSSLRSEDTAVYYCARVAYGAFDIWGQGTMVTVSS VL: EIVMTQSPATLSVSPGERATLSCRASQSVSSSYLAWYQQKPGQAPRLLIYGASTRATGIPARFSGSGSGTEFTLTISSLQSEDFAVYYCQQYNNWPLTFGGGTKVEIKR | 268 | 0.099 | 370000 |
| Human ST2 IgG1 Antibody 71 (antibody, V domains shown, IgG1; also called ST2 Antibody 71) VH: QVQLVQSGAEVKKPGASVKVSCKASGGTFSNYGVSWVRQAPGQGLEWMGGINPSRGTTTYAQKFQGRVTMTRDTSTSTVYMELSSLRSEDTAVYYCAKGDIVVVPAAMFSLGPGYYYYMDVWGKGTTVTVSS VL: DIQMTQSPSSLSASVGDRVTITCRASQSISSYLNWYQQKPGKAPKLLIYAASSLQSGVPSRFSGSGSGTDFTLTISSLQPEDFATYYCQQANSFPITFGQGTKLEIKR | 912 | 0.12 | 140000 |
| Human ST2 IgG1 Antibody 72 (antibody, V domains shown, IgG1; also called ST2 Antibody 72) VH: EVQLLESGGGLVQPGGSLRLSCAASGFTFSSYGMSWVRQAPGKGLEWLAVIWSDGGHKYYADSVKGRFTISRDNSKNTLYLQMNSLRAEDTAVYYCAREVRGWFDPWGQGTLVTVSS VL: DIQMTQSPSSLSASVGDRVTITCRASENIGTWLAWYQQKPGKAPKLLIYKASSLDSGVPSRFSGSGSGTDFTLTISSLQPEDFATYYCQQSYSTPYTFGQGTKLEIKR | 335 | 0.082 | 240000 |
| Human ST2 IgG1 Antibody 73 (antibody, V domains shown, IgG1; also called ST2 Antibody 73) VH: EVQLLESGGGLVQPGGSLRLSCAASGFAFSSHWMHWVRQAPGKGLEWVAVISYDGSNKYYADSVKGRFTISRDNSKNTLYLQMNSLRAEDTAVYYCARDRGMIDYWGQGTLVTVSS VL: DIQMTQSPSSLSASVGDRVTITCRASQGIGSWLAWYQQKPGKAPKLLIHAATKLQTGVPSRFSGSGSGTDFTLTISSLQPEDFATYYCQQSYSTPFTFGPGTKVDIKR | 603 | 0.085 | 140000 |
| Human ST2 IgG1 Antibody 74 (antibody, V domains shown, IgG1; also called ST2 Antibody 74) VH: EVQLLESGGGLVQPGGSLRLSCAASGFTFSSYWMSWVRQAPGKGLEWVSSISSSSSYIYYADSVKGRFTISRDNSKNTLYLQMNSLRAEDTAVYYCARDQGWFDPWGQGTLVTVSS VL: DIQMTQSPSSLSASVGDRVTITCRASRAIGNNLSWYQQKPGKAPKLLIYTASSLQSGVPSRFSGSGSGTDFTLTISSLQPEDFATYYCQQSYSTPYTFGQGTKVEIKR | 60 | 0.012 | 200000 |
| Human ST2 IgG1 Antibody 75 (antibody, V domains shown, IgG1; also called ST2 Antibody 75) VH: EVQLLESGGGLVQHGGSLRLSCAASGFTFSSYWMSWVRQAPGKGLEWVSSISSSSSYIYYADSVKGRFTISRDNSKNTLYLQMNSLRAEDTAVYYCARDIAGYFDLWGRGTLVTVSS VL: DIQMTQSPSSLSASVGDRVTITCQASQSISSYLNWYQQKPGKAPKLLIYAASSLQSGVPSRFSGSGSGTDFTLTISSLQPEDFATYYCQQGYLTPYTFGQGTKLEIKR | 360 | 0.041 | 120000 |
| Human ST2 IgG1 Antibody 76 (antibody, V domains shown, IgG1; also called ST2 Antibody 76) VH: QVQLVQSGAEVKKPGSSVKVSCKASGYTFTDYYMHWVRQAPGQGLEWMGVIIPVLGAAKYAQKFQGRVTITADESTSTAYMELSSLRSEDTAVYYCAKGWGAFDIWGQGTMVTVSS VL: EIVMTQSPATLSVSPGERATLSCRASQSVSSYLAWYQQKPGQAPRLLIYGASTRASGIPARFSGSGSGTEFTLTISSLQSEDFAVYYCQQYYSYPWTFGQGTKVEIKR | 133 | 0.11 | 820000 |
| Human ST2 IgG1 Antibody 77 (antibody, V domains shown, IgG1; also called ST2 Antibody 77) VH: QVQLVQSGAEVKKPGSSVKVSCKASGYTFSDHYIHWVRQAPGQGLEWMGGIIPILGTANYAQKFQGRVTITADESTSTAYMELSSLRSEDTAVYYCATDIAVAGTGFDYWGQGTLVTVSS VL: not shown | 377 | 0.099 | 260000 |
| Human ST2 IgG1 Antibody 78 (antibody, V domains shown, IgG1; also called ST2 Antibody 78) VH: EVQLLESGGGLVQPGGSLRLSCAASDFNFKNAWMSWVRQAPGKGLEWVSAISGNGAGTYYADSVKGRFTISRDNSKNTLYLQMNSLRAEDTAVYYCARVGETGAFDIWGQGTTVTVSS VL: not shown | 154 | 0.082 | 530000 |
| Human ST2 IgG1 Antibody 80 (antibody, V domains shown, IgG1; also called ST2 Antibody 80) VH: QVQLVQSGAEVKKPGSSVKVSCKASGGTFSSYAISWVRQAPGQGLEWMGGIIPIFGTANYAQKFQGRVTITADESTSTAYMELSSLRSEDTAVYYCARVMVAGTGYYFDYWGQGTLVTVSS VL: DIVMTQSPLSLPVTPGEPASISCRSSQSLLHSNGYNYLDWYLQKPGQSPQLLIYGASSLQSGVPDRFSGSGSGTDFTLKISRVEAEDVGVYYCMQGLHTPPTFGQGTKLEIKR | 842 | 0.056 | 67000 |
| Human ST2 IgG1 Antibody 81 (antibody, V domains shown, IgG1; also called ST2 Antibody 81) VH: EVQLLESGGGLVKPGGSLRLSCAASGFTFSSYWMSWVRQAPGKGLEWVSSISSSGNYMYYAVSVKGRFTISRDDSKNTLYLQMNSLKTEDTAVYYCATETYSYSSMDVWGQGTTVTVSS VL: DIQMTQSPSSLSASVGDRVTITCRASQSISSYLNWYQQKPGKAPKLLIYDASNLETGVPSRFSGSGSGTDFTLTISSLQPEDFATYYCQQSYGTPLTFGGGTKVDIKR | 126 | 0.026 | 200000 |
| Human ST2 IgG1 Antibody 82 (antibody, V domains shown, IgG1; also called ST2 Antibody 82) VH: QVQLVQSGAEVKKPGASVKVSCKASGYTFTENEMHWVRQAPGQGLEWMGWISAYNGDTNYAQKFQGRVTMTRDTSTSTVYMELSSLRSEDTAVYYCAKEVRLDDDEMWYFDLWGRGTLVTVSS VL: DIQMTQSPSSLSASVGDRVTITCRASQDINNFLVWYQQKPGKAPKLLIYDASNLETGVPSRFSGSGSGTDFTLTISSLQPEDFATYYCQQAYSFPLTFGGGTKVEIKR | 204 | 0.003 | 15000 |
